Measurements reported in patent publication US20210380703A1.

B1: 372_B04 (antibody, V domains shown)
VH: EVQLLESGGGLVQPGGSLRLSCAASGFTFDSYGMNWVRQAPGKGLEWVANINYNGGYTSYADSVKGRFTISRDNSKNTLYLQMNSLRAEDTAVYYCARSANWHDTALDYWGQGTLVTVSS
VL: DIQMTQSPSSLSASVGDRVTITCRASQSILSYVNWYQQKPGKAPKLVIYAATSLASGVPSRFSGSGSGTDFTLTISSLQPEDFATYYCQQSYDSPLTFGGGTKVEIK
B2: 373_C06 (antibody, V domains shown)
VH: EVQLLESGGGLVQPGGSLRLSCAASGFTFSSYSMNWVRQAPGKGLEWVAGINYNGGYTGYADSVKGRFTISRDNSKNTLYLQMNSLRAEDTAVYYCARSANWHDTALDYWGQGTLVTVSS
VL: DIQMTQSPSSLSASVGDRVTITCRASQSIVSYVNWYQQKPGKAPKLVIYAATSRASGVPSRFSGSGSGTDFTLTISSLQPEDFATYYCQQSYDTPLTFGGGTKVEIK
B3: 372_D02 (antibody, V domains shown)
VH: EVQLLESGGGLVQPGGSLRLSCAASGFTFSSYGMHWVRQAPGKGLEWVAGINYNGGYTGYADSVKGRFTISRDNSKNTLYLQMNSLRAEDTAVYYCARSANWHDTALDYWGQGTLVTVSS
VL: DIQMTQSPSSLSASVGDRVTITCRASQSILTYLNWYQQKPGKAPKLVIYAATSRASGVPSRFSGSGSGTDFTLTISSLQPEDFATYYCQQSYDNPLTFGGGTKVEIK
B4: 373_A08 (antibody, V domains shown)
VH: EVQLLESGGGLVQPGGSLRLSCAASGFTFDSYGMNWVRQAPGKGLEWVSNINYNGGYTGYADSVKGRFTISRDNSKNTLYLQMNSLRAEDTAVYYCARSANWHDTALDYWGQGTLVTVSS
VL: DIQMTQSPSSLSASVGDRVTITCRASQSIVSYVNWYQQKPGKAPKLLIYAATSLASGVPSRFSGSGSGTDFTLTISSLQPEDFATYYCQQSYSLPLTFGGGTKVEIK
B5: 373_C08 (antibody, V domains shown)
VH: EVQLLESGGGLVQPGGSLRLSCAASGFTFSSYSMNWVRQAPGKGLEWVANINYNGGYTSYADSVKGRFTISRDNSKNTLYLQMNSLRAEDTAVYYCARSANWHDTALDYWGQGTLVTVSS
VL: DIQMTQSPSSLSASVGDRVTITCRASQSIISYLNWYQQKPGKAPKLLIYAASSLQSGVPSRFSGSGSGTDFTLTISSLQPEDFATYYCQQSYNNPLTFGGGTKVEIK
B6: 372_F03 (antibody, V domains shown)
VH: EVQLLESGGGLVQPGGSLRLSCAASGFTFSSYGMNWVRQAPGKGLEWVAGINYNGGYTSYADSVKGRFTISRDNSKNTLYLQMNSLRAEDTAVYYCARSANWHDTALDYWGQGTLVTVSS
VL: DIQMTQSPSSLSASVGDRVTITCRASQSILSYLNWYQQKPGKAPKLVIYAATSRASGVPSRFSGSGSGTDFTLTISSLQPEDFATYYCQQSYDTPLTFGGGTKVEIK
B7: 373_D01 (antibody, V domains shown)
VH: EVQLLESGGGLVQPGGSLRLSCAASGFTFDSYSMNWVRQAPGKGLEWVSGINYNSGYKSYADSVKGRFTISRDNSKNTLYLQMNSLRAEDTAVYYCARSANWHDTHLDYWGQGTLVTVSS
VL: DIQMTQSPSSLSASVGDRVTITCRASQSILSYVNWYQQKPGKAPKLVIYAATSRASGVPSRFSGSGSGTDFTLTISSLQPEDFATYYCQQSYDSPLTFGGGTKVEIK
B8: 373_B04 (antibody, V domains shown)
VH: EVQLLESGGGLVQPGGSLRLSCAASGFTFSSYGMNWVRQAPGKGLEWVAGINYNSGYKGYADSVKGRFTISRDNSKNTLYLQMNSLRAEDTAVYYCARSANWHDTALDYWGQGTLVTVSS
VL: DIQMTQSPSSLSASVGDRVTITCRASQSILTYLNWYQQKPGKAPKLLIYAATSRASGVPSRFSGSGSGTDFTLTISSLQPEDFATYYCQQSYETPLTFGGGTKVEIK
B9: 373_D10 (antibody, V domains shown)
VH: EVQLLESGGGLVQPGGSLRLSCAASGFTFDSYSMNWVRQAPGKGLEWVSNINYNSGYKGYADSVKGRFTISRDNSKNTLYLQMNSLRAEDTAVYYCARSANWHDTALDYWGQGTLVTVSS
VL: DIQMTQSPSSLSASVGDRVTITCRASQSILSYVNWYQQKPGKAPKLLIYAATSRASGVPSRFSGSGSGTDFTLTISSLQPEDFATYYCQQSYDLPLTFGGGTKVEIK
B10: 373_B12 (antibody, V domains shown)
VH: EVQLLESGGGLVQPGGSLRLSCAASGFTFDSYGMNWVRQAPGKGLEWVSSINYNSGYTSYADSVKGRFTISRDNSKNTLYLQMNSLRAEDTAVYYCARSANWHDTALDYWGQGTLVTVSS
VL: DIQMTQSPSSLSASVGDRVTITCRASQSIVSYVNWYQQKPGKAPKLLIYAATSRASGVPSRFSGSGSGTDFTLTISSLQPEDFATYYCQQSYDSPLTFGGGTKVEIK
B11: 373_E05 (antibody, V domains shown)
VH: EVQLLESGGGLVQPGGSLRLSCAASGFTFDSYGMNWVRQAPGKGLEWVSNINYNGGYTSYADSVKGRFTISRDNSKNTLYLQMNSLRAEDTAVYYCARSANWHDTALDYWGQGTLVTVSS
VL: DIQMTQSPSSLSASVGDRVTITCRASQSILSYVNWYQQKPGKAPKLLIYAVTSRASGVPSRFSGSGSGTDFTLTISSLQPEDFATYYCQQSYDLPLTFGGGTKVEIK
B12: 372_C07 (antibody, V domains shown)
VH: EVQLLESGGGLVQPGGSLRLSCAASGFTFSDYSMNWVRQAPGKGLEWVSNINYNSGYTSYADSVKGRFTISRDNSKNTLYLQMNSLRAEDTAVYYCARSANWHDTHLDYWGQGTLVTVSS
VL: DIQMTQSPSSLSASVGDRVTITCRASQSILSYLNWYQQKPGKAPKLVIYAATSRHSGVPSRFSGSGSGTDFTLTISSLQPEDFATYYCQQSDNTPLTFGGGTKVEIK
B13: 373_B06 (antibody, V domains shown)
VH: EVQLLESGGGLVQPGGSLRLSCAASGFTFSDYSMNWVRQAPGKGLEWVAGINYNGGYTGYADSVKGRFTISRDNSKNTLYLQMNSLRAEDTAVYYCARSANWHDTALDYWGQGTLVTVSS
VL: DIQMTQSPSSLSASVGDRVTITCRASQSILTYVNWYQQKPGKAPKLVIYAATSRHSGVPSRFSGSGSGTDFTLTISSLQPEDFATYYCQQSYESPLTFGGGTKVEIK
B14: 373_C11 (antibody, V domains shown)
VH: EVQLLESGGGLVQPGGSLRLSCAASGFTFSSYSMNWVRQAPGKGLEWVSGINYNSGYTGYADSVKGRFTISRDNSKNTLYLQMNSLRAEDTAVYYCARSANWHDTALDYWGQGTLVTVSS
VL: DIQMTQSPSSLSASVGDRVTITCRASQSILTYVNWYQQKPGKAPKLVIYAVTSRASGVPSRFSGSGSGTDFTLTISSLQPEDFATYYCQQSYETPLTFGGGTKVEIK
B15: 372_F08 (antibody, V domains shown)
VH: EVQLLESGGGLVQPGGSLRLSCAASGFTFSDYSMNWVRQAPGKGLEWVSNINYNSGYTGYADSVKGRFTISRDNSKNTLYLQMNSLRAEDTAVYYCARSANWHDTALDYWGQGTLVTVSS
VL: DIQMTQSPSSLSASVGDRVTITCRASQSILTYVNWYQQKPGKAPKLVIYAATSRASGVPSRFSGSGSGTDFTLTISSLQPEDFATYYCQQSYDTPLTFGGGTKVEIK
B16: 373_A10 (antibody, V domains shown)
VH: EVQLLESGGGLVQPGGSLRLSCAASGFTFSSYGMNWVRQAPGKGLEWVSGINYNSGYTSYADSVKGRFTISRDNSKNTLYLQMNSLRAEDTAVYYCARSANWHDTALDYWGQGTLVTVSS
VL: DIQMTQSPSSLSASVGDRVTITCRASQSILSYLNWYQQKPGKAPKLVIYAATSRASGVPSRFSGSGSGTDFTLTISSLQPEDFATYYCQQSYDLPLTFGGGTKVEIK
B17: 373_C04 (antibody, V domains shown)
VH: EVQLLESGGGLVQPGGSLRLSCAASGFTFSSYSMNWVRQAPGKGLEWVANINYNSGYTGYADSVKGRFTISRDNSKNTLYLQMNSLRAEDTAVYYCARSANWHDTALDYWGQGTLVTVSS
VL: DIQMTQSPSSLSASVGDRVTITCRASQSIISYVNWYQQKPGKAPKLVIYAVTSRASGVPSRFSGSGSGTDFTLTISSLQPEDFATYYCQQSYNSPLTFGGGTKVEIK
B18: 372_F06 (antibody, V domains shown)
VH: EVQLLESGGGLVQPGGSLRLSCAASGFTFSDYGMNWVRQAPGKGLEWVAGINYNGGYKSYADSVKGRFTISRDNSKNTLYLQMNSLRAEDTAVYYCARSANWHDTALDYWGQGTLVTVSS
VL: DIQMTQSPSSLSASVGDRVTITCRASQSILSYVNWYQQKPGKAPKLLIYAATSLASGVPSRFSGSGSGTDFTLTISSLQPEDFATYYCQQSYETPLTFGGGTKVEIK
B19: 373_D04 (antibody, V domains shown)
VH: EVQLLESGGGLVQPGGSLRLSCAASGFTFDSYSMNWVRQAPGKGLEWVSGINYNSGYKGYADSVKGRFTISRDNSKNTLYLQMNSLRAEDTAVYYCARSANWHDTALDYWGQGTLVTVSS
VL: DIQMTQSPSSLSASVGDRVTITCRASQSILSYLNWYQQKPGKAPKLLIYAATSRHSGVPSRFSGSGSGTDFTLTISSLQPEDFATYYCQQSYDSPLTFGGGTKVEIK
B20: 373_B10 (antibody, V domains shown)
VH: EVQLLESGGGLVQPGGSLRLSCAASGFTFDSYGMNWVRQAPGKGLEWVSNINYNGGYTSYADSVKGRFTISRDNSKNTLYLQMNSLRAEDTAVYYCARSANWHDTALDYWGQGTLVTVSS
VL: DIQMTQSPSSLSASVGDRVTITCRASQSILSYLNWYQQKPGKAPKLLIYAATSRASGVPSRFSGSGSGTDFTLTISSLQPEDFATYYCQQSYDLPLTFGGGTKVEIK
B21: 373_D05 (antibody, V domains shown)
VH: EVQLLESGGGLVQPGGSLRLSCAASGFTFSSYSMNWVRQAPGKGLEWVSGINYNSGYKGYADSVKGRFTISRDNSKNTLYLQMNSLRAEDTAVYYCARSANWHDTALDYWGQGTLVTVSS
VL: DIQMTQSPSSLSASVGDRVTITCRASQSILSYLNWYQQKPGKAPKLVIYAATSRASGVPSRFSGSGSGTDFTLTISSLQPEDFATYYCQQSYDSPLTFGGGTKVEIK
B22: 373_E01 (antibody, V domains shown)
VH: EVQLLESGGGLVQPGGSLRLSCAASGFTFSSYGMNWVRQAPGKGLEWVSGINYNGGYKGYADSVKGRFTISRDNSKNTLYLQMNSLRAEDTAVYYCARSANWHDTALDYWGQGTLVTVSS
VL: DIQMTQSPSSLSASVGDRVTITCRASQSIVSYVNWYQQKPGKAPKLLIYAATSRHSGVPSRFSGSGSGTDFTLTISSLQPEDFATYYCQQSYNNPLTFGGGTKVEIK

molecular target: Human Fc (human); assay: ELISA, negative control

| Binder | optical density [OD] |
| --- | --- |
| B1 | 0.333 |
| B2 | 0.163 |
| B3 | 0.433 |
| B4 | 0.195 |
| B5 | 0.16 |
| B6 | 0.438 |
| B7 | 0.174 |
| B8 | 0.176 |
| B9 | 0.189 |
| B10 | 0.172 |
| B11 | 0.176 |
| B12 | 0.279 |
| B13 | 0.221 |
| B14 | 0.171 |
| B15 | 0.335 |
| B16 | 0.175 |
| B17 | 0.157 |
| B18 | 0.38 |
| B19 | 0.168 |
| B20 | 0.174 |
| B21 | 0.179 |
| B22 | 0.16 |
